For 34 variants, abundance fitness results are on record in the Human Domainome abundance scans (Beltran et al. 2025).

B1: Zinc finger MYM-type protein 3, residues 589 to 668; numbered along this chain, Q14202 (parent)
chain: LSCHYCHSLFSGKPEVLDWQDQVFQFCCRDCCEDFKRLRGVVSQCEHCRQEKLLHEKLRFSGVEKSFCSEGCVLLYKQDF

± gives the uncertainty stated by the source.

This data set covers variants of B1. The data set is described as follows: abundance fitness (aPCA) (normalised: wild type 0, dead -1); higher = more abundant; growth selection in yeast, the domain comes from the species named. To be noted: Homo sapiens.
Consider LFCHYCHSLFSGKPEVLDWQDQVFQFCCRDCCEDFKRLRGVVSQCEHCRQEKLLHEKLRFSGVEKSFCSEGCVLLYKQDF [S2F], for which the abundance fitness came to 0.141 ± 0.084.

Regarding LSCHYCHSLFSGKPEVLDWQDQVFQFCCRDCCEDFKRLRGVVSQCEHCRQEKLLHEKLRFSGQEKSFCSEGCVLLYKQDF [V63Q], the abundance fitness is -0.548 ± 0.36.

For LSCHYCHSLFSGKPEVLDWQDQVFQFCCSDCCEDFKRLRGVVSQCEHCRQEKLLHEKLRFSGVEKSFCSEGCVLLYKQDF [R29S], the abundance fitness was 0.009 ± 0.044.

In the case of LSCHYCHSLFSGKPEVLDWQDQVFQFCCRDCCEDFKRLRGVVSQCEHCRQEKLLHEKLRFSGVEKSFCSEECVLLYKQDF [G71E], the abundance fitness is 0.62 ± 0.085.

For the variant LSCHYCHSLFSGKPEVLDWQDQVFQFCCRDCCEDFKRLRGVVSQCEHCRQEKLLHEKLRFSGVEKSFCSEQCVLLYKQDF [G71Q], the abundance fitness is 0.378 ± 0.16.

Regarding LSCHYCHSLRSGKPEVLDWQDQVFQFCCRDCCEDFKRLRGVVSQCEHCRQEKLLHEKLRFSGVEKSFCSEGCVLLYKQDF [F10R], the abundance fitness was -0.498 ± 0.05.

Consider LSCHYCHSLKSGKPEVLDWQDQVFQFCCRDCCEDFKRLRGVVSQCEHCRQEKLLHEKLRFSGVEKSFCSEGCVLLYKQDF [F10K], for which the abundance fitness was -0.535 ± 0.085.

As for LSCHYCHSLFSGKPEVLDWQDQVFVFCCRDCCEDFKRLRGVVSQCEHCRQEKLLHEKLRFSGVEKSFCSEGCVLLYKQDF [Q25V], the abundance fitness is 0.032 ± 0.041.

Turning to LSCHYCHSLFSGKPEVLDWQDQVFQFCCRDCCEDFKRLRGVVSQCEHCRQGKLLHEKLRFSGVEKSFCSEGCVLLYKQDF [E51G], the abundance fitness is -0.393 ± 0.12.

With LSCHYCHSLFSGKPEVLDWQDQVFQFCCRDCCEDFKRLRGVVSQCEHCRQEKLLHEKLRRSGVEKSFCSEGCVLLYKQDF [F60R], the abundance fitness is -0.327 ± 0.12.

For LSCHYCHSLFSGKPEVLDWQDQVFQFCCRDCCEDFKRLRGVVSQCEHCRQEKLLHEKLRMSGVEKSFCSEGCVLLYKQDF [F60M], the abundance fitness was found to be 0.079 ± 0.27.

With LSCHYCHSLFSGKPEVLDWQDQVFQFCCRDCCEDFKRLRGVVSQCEHCRQEKLLHEKLRFSGVEKSFCSEGCVLGYKQDF [L75G], the abundance fitness was 0.276 ± 0.073.

Regarding LSCHYCHSLFSGKPEVLDWQDQVFQFCARDCCEDFKRLRGVVSQCEHCRQEKLLHEKLRFSGVEKSFCSEGCVLLYKQDF [C28A], the abundance fitness was 0.017 ± 0.041.

Turning to LSCHYCHSLFSGKPEVLDWQDQVFQFCPRDCCEDFKRLRGVVSQCEHCRQEKLLHEKLRFSGVEKSFCSEGCVLLYKQDF [C28P], the abundance fitness was -0.607 ± 0.076.

Regarding LSCHYCHSLFSGKPSVLDWQDQVFQFCCRDCCEDFKRLRGVVSQCEHCRQEKLLHEKLRFSGVEKSFCSEGCVLLYKQDF [E15S], the abundance fitness is -0.108 ± 0.064.

Turning to LSCHYCHWLFSGKPEVLDWQDQVFQFCCRDCCEDFKRLRGVVSQCEHCRQEKLLHEKLRFSGVEKSFCSEGCVLLYKQDF [S8W], the abundance fitness was -0.015 ± 0.046.

Regarding LSCHYCHSLFSGKPEVLDWQDQVFQFCCRDCCEDFKRLRGVVSQCEHCRQEKLLHEKLRFSGVEKSQCSEGCVLLYKQDF [F67Q], the abundance fitness was -0.338 ± 0.14.

As for LSCHYCHSLFSGKPEVLDWQDQVFQFCCRDCCEDFKRLRGVVSQCEHCRQEKLLHEKLRFSGVEKSGCSEGCVLLYKQDF [F67G], the abundance fitness was found to be 0.039 ± 0.12.

For LSCHYCHSLFSGKPEVLDWQDQVFQFCCRDCCEDFKRLRGVWSQCEHCRQEKLLHEKLRFSGVEKSFCSEGCVLLYKQDF [V42W], the abundance fitness is -0.01 ± 0.12.

For the variant LSCHYCHSLFSGKPEVLDWQDQVFQFCCRDCCEDFKRLRGVGSQCEHCRQEKLLHEKLRFSGVEKSFCSEGCVLLYKQDF [V42G], the abundance fitness was -0.265 ± 0.095.

LSCHYCHSLFSGKPEVLDWQDQVFQFCCRDCCEDFKRLRGVVSQCEHCRQEKLLHEKLRFSGVEKSFCSEGCVLLYKQVF [D79V]: the abundance fitness is -0.531 ± 0.23.

For the variant LSCHYCHSLFSGKPEVLDWQDQVFQFCCRDCCEDFKRLRGVVSQCEHCRQEKLLHEKLRFSGVEKSFCSEGLVLLYKQDF [C72L], the abundance fitness was -1.04 ± 0.23.

Regarding LSCHYCHSLFSGKPEVLDWQDQVFQRCCRDCCEDFKRLRGVVSQCEHCRQEKLLHEKLRFSGVEKSFCSEGCVLLYKQDF [F26R], the abundance fitness is -0.603 ± 0.049.

Regarding LSCHYCHSLFSGKPEVLDWQDQVFQECCRDCCEDFKRLRGVVSQCEHCRQEKLLHEKLRFSGVEKSFCSEGCVLLYKQDF [F26E], the abundance fitness was -0.506 ± 0.057.

In the case of LSCHYCHSLFSGKPEVLDCQDQVFQFCCRDCCEDFKRLRGVVSQCEHCRQEKLLHEKLRFSGVEKSFCSEGCVLLYKQDF [W19C], the abundance fitness is 0.276 ± 0.05.

With LSCHYCHSLFSGKPEVLDWQDQVFQFCCRDCCEDFKRLRGVVSQCEHCRQEKLLYEKLRFSGVEKSFCSEGCVLLYKQDF [H55Y], the abundance fitness worked out at 0.223 ± 0.38.

As to LSCHYCHSLFSGKPEVLDWQDQVFQFCCRDCCEDFKRLRGVVSQCEHCRQEKLLGEKLRFSGVEKSFCSEGCVLLYKQDF [H55G], the abundance fitness is -0.126 ± 0.096.

In the case of LSCHYCHSLFSGKPEVLRWQDQVFQFCCRDCCEDFKRLRGVVSQCEHCRQEKLLHEKLRFSGVEKSFCSEGCVLLYKQDF [D18R], the abundance fitness is 0.155 ± 0.044.

Take LSCHYCHSLFSGKPEVLDWQDQVFQFCCRFCCEDFKRLRGVVSQCEHCRQEKLLHEKLRFSGVEKSFCSEGCVLLYKQDF [D30F]: the abundance fitness is -0.263 ± 0.076.

For the variant LSCHYCHSLFSGKPEVLDWQDQVFQFCCRDCCEDFKRLRGVVSQCEHCDQEKLLHEKLRFSGVEKSFCSEGCVLLYKQDF [R49D], the abundance fitness is -0.485 ± 0.46.

For the variant LSCHYCHSLFSGKPEVLDWQDQVFQFCCRDCCEDFKRLRGVVSQCEHCRQEKLLHEKLRFSGVEKSFCSEGCVLLYAQDF [K77A], the abundance fitness was -0.78 ± 0.19.

As for LSCHYCHSLFSGKPEVLDWQDQVFQFCCRDCCEDFKRLRGVVSQCEHCRQEKLLHEKLRFLGVEKSFCSEGCVLLYKQDF [S61L], the abundance fitness is -0.311 ± 0.2.

As to LSCHYCSSLFSGKPEVLDWQDQVFQFCCRDCCEDFKRLRGVVSQCEHCRQEKLLHEKLRFSGVEKSFCSEGCVLLYKQDF [H7S], the abundance fitness was 0.237 ± 0.058.

On to LSCHYCTSLFSGKPEVLDWQDQVFQFCCRDCCEDFKRLRGVVSQCEHCRQEKLLHEKLRFSGVEKSFCSEGCVLLYKQDF [H7T], for which the abundance fitness came to 0.124 ± 0.059.
